# T1: z (Drosophila melanogaster, UniProt P09956 1-575)
# T1 sequence: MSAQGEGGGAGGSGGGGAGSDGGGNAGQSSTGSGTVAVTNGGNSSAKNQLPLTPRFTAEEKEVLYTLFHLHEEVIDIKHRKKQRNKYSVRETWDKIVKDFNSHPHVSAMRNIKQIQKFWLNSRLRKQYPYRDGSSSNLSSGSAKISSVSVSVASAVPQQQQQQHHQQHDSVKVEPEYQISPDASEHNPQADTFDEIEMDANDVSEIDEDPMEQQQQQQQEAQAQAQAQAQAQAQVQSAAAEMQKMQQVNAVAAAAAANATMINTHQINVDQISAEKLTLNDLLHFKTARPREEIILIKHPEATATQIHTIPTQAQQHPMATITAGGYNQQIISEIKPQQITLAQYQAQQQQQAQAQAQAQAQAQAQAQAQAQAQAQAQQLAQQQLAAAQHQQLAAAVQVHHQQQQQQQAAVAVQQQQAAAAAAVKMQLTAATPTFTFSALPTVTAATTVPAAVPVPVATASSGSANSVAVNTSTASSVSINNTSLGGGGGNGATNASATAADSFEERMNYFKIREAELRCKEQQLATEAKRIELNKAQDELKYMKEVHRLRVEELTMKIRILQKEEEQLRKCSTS
# B1: bcd motif (dsDNA)
# DNA 1: CGCGGATTAGCTCCGGCGGTATGAC
# DNA 2: GTCATACCGCCGGAGCTAATCCGCG
# B2: prd motif (dsDNA)
# DNA 1: CGCCCAATTTGTCACGCTCTCCGGCGGTATGAC
# DNA 2: GTCATACCGCCGGAGAGCGTGACAAATTGGGCG
# B3: gt motif (dsDNA)
# DNA 1: CGCATTACGTAATAACTCCGGCGGTATGAC
# DNA 2: GTCATACCGCCGGAGTTATTACGTAATGCG
# B4: D motif (dsDNA)
# DNA 1: CGCGTCCATTGTTCTCTCCGGCGGTATGAC
# DNA 2: GTCATACCGCCGGAGAGAACAATGGACGCG
# Legend:
# Test in all cases: MITOMI saturation binding
# [1] = biological target: Gsc (Drosophila melanogaster, UniProt P54366 1-415)
# Gsc, sequence (P54366 whole entry): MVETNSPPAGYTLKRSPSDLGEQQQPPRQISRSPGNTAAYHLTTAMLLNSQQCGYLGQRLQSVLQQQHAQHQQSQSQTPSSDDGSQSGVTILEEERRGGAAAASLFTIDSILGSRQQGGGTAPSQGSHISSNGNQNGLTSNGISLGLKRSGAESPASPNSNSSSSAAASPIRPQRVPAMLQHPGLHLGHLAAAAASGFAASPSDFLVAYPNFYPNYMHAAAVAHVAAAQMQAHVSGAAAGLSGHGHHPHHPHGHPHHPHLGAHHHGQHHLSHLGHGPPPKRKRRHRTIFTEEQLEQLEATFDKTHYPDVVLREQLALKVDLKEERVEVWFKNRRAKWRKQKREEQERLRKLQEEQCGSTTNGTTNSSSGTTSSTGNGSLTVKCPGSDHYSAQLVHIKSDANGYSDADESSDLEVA
# [2] = biological target: T1, z
# [3] = biological target: gooseberry (gsb) (Drosophila melanogaster, UniProt P09082 1-427)
# gooseberry (gsb), sequence (P09082 whole entry): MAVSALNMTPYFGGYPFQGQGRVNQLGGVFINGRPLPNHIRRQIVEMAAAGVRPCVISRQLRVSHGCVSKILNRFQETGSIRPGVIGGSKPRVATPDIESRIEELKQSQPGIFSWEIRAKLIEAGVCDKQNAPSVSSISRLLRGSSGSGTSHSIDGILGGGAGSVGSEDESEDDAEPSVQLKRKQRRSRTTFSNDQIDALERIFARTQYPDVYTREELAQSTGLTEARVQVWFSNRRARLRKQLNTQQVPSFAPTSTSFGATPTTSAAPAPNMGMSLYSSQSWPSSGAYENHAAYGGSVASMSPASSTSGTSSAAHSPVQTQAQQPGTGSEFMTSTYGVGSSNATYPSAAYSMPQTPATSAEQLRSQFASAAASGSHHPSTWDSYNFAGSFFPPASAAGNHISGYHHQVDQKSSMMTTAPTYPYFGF
# [4] = biological target: gooseberry-neuro (gsb-n) (Drosophila melanogaster, UniProt P09083 1-449)
# gooseberry-neuro (gsb-n), sequence (P09083 whole entry): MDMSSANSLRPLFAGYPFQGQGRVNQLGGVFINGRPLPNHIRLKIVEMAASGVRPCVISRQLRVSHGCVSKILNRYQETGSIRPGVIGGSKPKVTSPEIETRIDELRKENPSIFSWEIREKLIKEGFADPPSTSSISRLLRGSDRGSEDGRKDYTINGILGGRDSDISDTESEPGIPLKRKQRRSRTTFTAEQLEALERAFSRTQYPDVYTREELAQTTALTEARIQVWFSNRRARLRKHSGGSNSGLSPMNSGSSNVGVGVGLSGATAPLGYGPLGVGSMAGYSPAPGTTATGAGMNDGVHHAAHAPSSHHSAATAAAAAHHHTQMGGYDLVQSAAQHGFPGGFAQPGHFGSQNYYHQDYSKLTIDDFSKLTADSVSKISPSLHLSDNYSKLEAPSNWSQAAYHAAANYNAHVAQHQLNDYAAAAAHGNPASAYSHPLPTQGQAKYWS
# [5] = biological target: slbo (Drosophila melanogaster, UniProt Q02637 1-449)
# slbo, sequence (Q02637 whole entry): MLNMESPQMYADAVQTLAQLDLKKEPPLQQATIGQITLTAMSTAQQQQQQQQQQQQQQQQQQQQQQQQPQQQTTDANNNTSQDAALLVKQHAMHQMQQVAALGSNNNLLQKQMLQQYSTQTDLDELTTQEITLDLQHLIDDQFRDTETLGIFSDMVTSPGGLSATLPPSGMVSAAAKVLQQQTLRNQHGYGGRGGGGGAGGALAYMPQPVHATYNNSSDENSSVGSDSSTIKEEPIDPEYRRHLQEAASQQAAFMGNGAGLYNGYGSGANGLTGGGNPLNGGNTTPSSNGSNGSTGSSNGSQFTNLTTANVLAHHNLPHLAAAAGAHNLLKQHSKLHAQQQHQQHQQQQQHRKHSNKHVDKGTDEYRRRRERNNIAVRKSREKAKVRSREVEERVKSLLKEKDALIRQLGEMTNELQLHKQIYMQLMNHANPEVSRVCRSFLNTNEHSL
# [6] = biological target: Sox21a (Drosophila melanogaster, UniProt Q9VUD1 1-388)
binder,measurement,setting,value
B1,binding result,[1],binds
same,binding result,[2],binds
B2,binding result,[3],binds
same,binding result,[4],binds
same,binding result,[2],binds
B3,binding result,[5],binds
B4,binding result,[6],binds

# Source: PMC3575842
